Measured values reported in patent US7977317B2, “Compositions and methods for modulating blood-brain barrier transport” (Raptor Pharmaceutical Inc., priority 2001, dated 2011).

B1: lactoferrin: lactoferrin (Lf), LRP ligand used as competitor (protein, UniProt P02788 20-710, looked up)
Lactotransferrin: GRRRSVQWCAVSQPEATKCFQWQRNMRKVRGPPVSCIKRDSPIQCIQAIAENRADAVTLDGGFIYEAGLAPYKLRPVAAEVYGTERQPRTHYYAVAVVKKGGSFQLNELQGLKSCHTGLRRTAGWNVPIGTLRPFLNWTGPPEPIEAAVARFFSASCVPGADKGQFPNLCRLCAGTGENKCAFSSQEPYFSYSGAFKCLRDGAGDVAFIRESTVFEDLSDEAERDEYELLCPDNTRKPVDKFKDCHLARVPSHAVVARSVNGKEDAIWNLLRQAQEKFGKDKSPKFQLFGSPSGQKDLLFKDSAIGFSRVPPRIDSGLYLGSGYFTAIQNLRKSEEEVAARRARVVWCAVGEQELRKCNQWSGLSEGSVTCSSASTTEDCIALVLKGEADAMSLDGGYVYTAGKCGLVPVLAENYKSQQSSDPDPNCVDRPVEGYLAVAVVRRSDTSLTWNSVKGKKSCHTAVDRTAGWNIPMGLLFNQTGSCKFDEYFSQSCAPGSDPRSNLCALCIGDEQGENKCVPNSNERYYGYTGAFRCLAENAGDVAFVKDVTVLQNTDGNNNEAWAKDLKLADFALLCLDGKRKPVTEARSCHLAMAPNHAVVSRMDKVERLKQVLLHQQAKFGRNGSDCPDKFCLFQSETKNLLFNDNTECLARLHGKTTYEKYLGPQYVAGITNLKKCSTSPLLEACEFLRK
B2: p97: recombinant human melanotransferrin (p97), provided by Synapse Technologies (protein, UniProt P08582 20-709, looked up)
Melanotransferrin: GMEVRWCATSDPEQHKCGNMSEAFREAGIQPSLLCVRGTSADHCVQLIAAQEADAITLDGGAIYEAGKEHGLKPVVGEVYDQEVGTSYYAVAVVRRSSHVTIDTLKGVKSCHTGINRTVGWNVPVGYLVESGRLSVMGCDVLKAVSDYFGGSCVPGAGETSYSESLCRLCRGDSSGEGVCDKSPLERYYDYSGAFRCLAEGAGDVAFVKHSTVLENTDGKTLPSWGQALLSQDFELLCRDGSRADVTEWRQCHLARVPAHAVVVRADTDGGLIFRLLNEGQRLFSHEGSSFQMFSSEAYGQKDLLFKDSTSELVPIATQTYEAWLGHEYLHAMKGLLCDPNRLPPYLRWCVLSTPEIQKCGDMAVAFRRQRLKPEIQCVSAKSPQHCMERIQAEQVDAVTLSGEDIYTAGKTYGLVPAAGEHYAPEDSSNSYYVVAVVRRDSSHAFTLDELRGKRSCHAGFGSPAGWDVPVGALIQRGFIRPKDCDVLTAVSEFFNASCVPVNNPKNYPSSLCALCVGDEQGRNKCVGNSQERYYGYRGAFRCLVENAGDVAFVRHTTVFDNTNGHNSEPWAAELRSEDYELLCPNGARAEVSQFAACNLAQIPPHAVMVRPDTNIFTVYGLLDKAQDLFGDDHNKNGFKMFDSSNYHGQDLLFKDATVRAVPVGEKTTYRGWLGLDYVAALEGMSSQQC

Tests used:
[1] = target: LRP (Homo sapiens, UniProt Q07954); conditions: Tables 1-3; cited from earlier work
[2] = tested on: BBCE; experiment: Transcellular co-localization of p97 with clathrin in BBCE; assay type: cell-based, bovine; conditions: clathrin versus caveolin
Text: FIG. 21 depicts the transcellular co-localization of p97 and clathrin turning transcytosis.
Transcellular localization of p97 and clathrin was examined in BBCE as the p97 moved from the luminal to abluminal side of the BBB model (FIG. 21). The data are indicative of a co-migration of p97 and clathrin. As a control for the effect of the Alexa label, the behavior of p97 and p97-alexa were compared. (data not shown).

[3] = tested on: mAb L235; experiment: BIAcore analysis of native and boiled p97 on immobilized mAb L235; assay type: physicochemical; conditions: in Ringer/Hepes solution, boiled 5 to 30 min (FIG. 13b)
Experimental: FIG. 13 illustrates the transcytosis and accumulation of p97 and transferrin in BBCEC monolayers. FIG. 13a, Transcytosis experiments were performed at 37° C. (solid bars) or 4° C. (white bars). [^125I]-p97 or bovine [^125I]-holo-transferrin (1 mg/ml) was added to the upper side of the cell-covered filter. At the end of the experiment, radiolabelled proteins were measured in the lower chamber of each well by TCA precipitation (n=4). Controls were also performed at 37° C. with denatured [^125I]-p97 or bovine [^125I]-holo-transferrin boiled for 30 min (grey bars) (n=2); FIG. 13b, Biospecific interaction analysis was performed with native or boiled p97 for the indicated times. MAb L235 (5 μg) was immobilized on a sensor chip (SM5) using standard procedures incorporating NHS, EDC and ethanolamine. Native and boiled p97 (5 to 30 min) diluted at 1 mg/ml in Ringer/Hepes was cooled and injected into the BIAcore. The surface plasmon resonance response obtained for native p97 and boiled p97 was plotted (in relative units (RU)) as a function of time; FIG. 13c, The accumulation of both proteins into BBEC cells were also measured. Briefly, after incubation at 37° C. (solid bars) or 4° C. […] Accumulation of both denatured proteins (grey bars) was also measured at 37° C. Filters were then removed, and the radioactivity associated with the cells was quantified (n=3). […]

[4] = tested on: endogenous melanotransferrin; experiment: RT-PCR after p97 treatment in U-87 cells: endogenous melanotransferrin; assay type: cell-based, human; conditions: RT-PCR (FIG. 36)
Experimental: FIG. 36. Effect of p97 and RAP treatments in U-87 cells (RT-PCR) on endogenous melanotransferrin. Cells (2×105) were plated onto six-multiwell microplates and grown at 37° C. under 5% CO2 with optimal culture medium supplemented with serum for 4 days. Treatment with p97 and RAP was performed in serum free medium for 72 hours. RNA isolation and RT-PCR were performed as described in the Examples. The amplified PCR products were electrophoresed on a 2% agarose gel and visualized under ultraviolet light. (n=1).
RNA extraction. Cells in six-wells plate or in 75 cm^2 plastic tissue culture flasks were grown at 37° C. under 5% CO2 with optimal culture medium to 80-90% confluence. Total cellular RNA was preserved in Trizol (Gibco BRL, Burlington, ON). The solution are frozen at −80° C. until extraction. The solution was defroze and mixed with 5:1 chloroform for 3 minutes at room temperature. The suspension was centrifugated at 12000 g at 4° C. The clear supernatant was collected then mixed with 1:1 of isopropanol for 15 minutes at room temperature. The mix was centrifugated at 12000×g for 10 min at 4° C. The pellets was washed with 70% ethanol and dried before resuspended in RNase Free H2O.
RT-PCR. RT-PCR was performed for members of the LDL-R family: LRP, LRP1B, megalin, LDL, VLDL, LRP8, LR11, RAP, LR3, cubulin and P97. […]

Chain of LRP (Q07954 20-4544): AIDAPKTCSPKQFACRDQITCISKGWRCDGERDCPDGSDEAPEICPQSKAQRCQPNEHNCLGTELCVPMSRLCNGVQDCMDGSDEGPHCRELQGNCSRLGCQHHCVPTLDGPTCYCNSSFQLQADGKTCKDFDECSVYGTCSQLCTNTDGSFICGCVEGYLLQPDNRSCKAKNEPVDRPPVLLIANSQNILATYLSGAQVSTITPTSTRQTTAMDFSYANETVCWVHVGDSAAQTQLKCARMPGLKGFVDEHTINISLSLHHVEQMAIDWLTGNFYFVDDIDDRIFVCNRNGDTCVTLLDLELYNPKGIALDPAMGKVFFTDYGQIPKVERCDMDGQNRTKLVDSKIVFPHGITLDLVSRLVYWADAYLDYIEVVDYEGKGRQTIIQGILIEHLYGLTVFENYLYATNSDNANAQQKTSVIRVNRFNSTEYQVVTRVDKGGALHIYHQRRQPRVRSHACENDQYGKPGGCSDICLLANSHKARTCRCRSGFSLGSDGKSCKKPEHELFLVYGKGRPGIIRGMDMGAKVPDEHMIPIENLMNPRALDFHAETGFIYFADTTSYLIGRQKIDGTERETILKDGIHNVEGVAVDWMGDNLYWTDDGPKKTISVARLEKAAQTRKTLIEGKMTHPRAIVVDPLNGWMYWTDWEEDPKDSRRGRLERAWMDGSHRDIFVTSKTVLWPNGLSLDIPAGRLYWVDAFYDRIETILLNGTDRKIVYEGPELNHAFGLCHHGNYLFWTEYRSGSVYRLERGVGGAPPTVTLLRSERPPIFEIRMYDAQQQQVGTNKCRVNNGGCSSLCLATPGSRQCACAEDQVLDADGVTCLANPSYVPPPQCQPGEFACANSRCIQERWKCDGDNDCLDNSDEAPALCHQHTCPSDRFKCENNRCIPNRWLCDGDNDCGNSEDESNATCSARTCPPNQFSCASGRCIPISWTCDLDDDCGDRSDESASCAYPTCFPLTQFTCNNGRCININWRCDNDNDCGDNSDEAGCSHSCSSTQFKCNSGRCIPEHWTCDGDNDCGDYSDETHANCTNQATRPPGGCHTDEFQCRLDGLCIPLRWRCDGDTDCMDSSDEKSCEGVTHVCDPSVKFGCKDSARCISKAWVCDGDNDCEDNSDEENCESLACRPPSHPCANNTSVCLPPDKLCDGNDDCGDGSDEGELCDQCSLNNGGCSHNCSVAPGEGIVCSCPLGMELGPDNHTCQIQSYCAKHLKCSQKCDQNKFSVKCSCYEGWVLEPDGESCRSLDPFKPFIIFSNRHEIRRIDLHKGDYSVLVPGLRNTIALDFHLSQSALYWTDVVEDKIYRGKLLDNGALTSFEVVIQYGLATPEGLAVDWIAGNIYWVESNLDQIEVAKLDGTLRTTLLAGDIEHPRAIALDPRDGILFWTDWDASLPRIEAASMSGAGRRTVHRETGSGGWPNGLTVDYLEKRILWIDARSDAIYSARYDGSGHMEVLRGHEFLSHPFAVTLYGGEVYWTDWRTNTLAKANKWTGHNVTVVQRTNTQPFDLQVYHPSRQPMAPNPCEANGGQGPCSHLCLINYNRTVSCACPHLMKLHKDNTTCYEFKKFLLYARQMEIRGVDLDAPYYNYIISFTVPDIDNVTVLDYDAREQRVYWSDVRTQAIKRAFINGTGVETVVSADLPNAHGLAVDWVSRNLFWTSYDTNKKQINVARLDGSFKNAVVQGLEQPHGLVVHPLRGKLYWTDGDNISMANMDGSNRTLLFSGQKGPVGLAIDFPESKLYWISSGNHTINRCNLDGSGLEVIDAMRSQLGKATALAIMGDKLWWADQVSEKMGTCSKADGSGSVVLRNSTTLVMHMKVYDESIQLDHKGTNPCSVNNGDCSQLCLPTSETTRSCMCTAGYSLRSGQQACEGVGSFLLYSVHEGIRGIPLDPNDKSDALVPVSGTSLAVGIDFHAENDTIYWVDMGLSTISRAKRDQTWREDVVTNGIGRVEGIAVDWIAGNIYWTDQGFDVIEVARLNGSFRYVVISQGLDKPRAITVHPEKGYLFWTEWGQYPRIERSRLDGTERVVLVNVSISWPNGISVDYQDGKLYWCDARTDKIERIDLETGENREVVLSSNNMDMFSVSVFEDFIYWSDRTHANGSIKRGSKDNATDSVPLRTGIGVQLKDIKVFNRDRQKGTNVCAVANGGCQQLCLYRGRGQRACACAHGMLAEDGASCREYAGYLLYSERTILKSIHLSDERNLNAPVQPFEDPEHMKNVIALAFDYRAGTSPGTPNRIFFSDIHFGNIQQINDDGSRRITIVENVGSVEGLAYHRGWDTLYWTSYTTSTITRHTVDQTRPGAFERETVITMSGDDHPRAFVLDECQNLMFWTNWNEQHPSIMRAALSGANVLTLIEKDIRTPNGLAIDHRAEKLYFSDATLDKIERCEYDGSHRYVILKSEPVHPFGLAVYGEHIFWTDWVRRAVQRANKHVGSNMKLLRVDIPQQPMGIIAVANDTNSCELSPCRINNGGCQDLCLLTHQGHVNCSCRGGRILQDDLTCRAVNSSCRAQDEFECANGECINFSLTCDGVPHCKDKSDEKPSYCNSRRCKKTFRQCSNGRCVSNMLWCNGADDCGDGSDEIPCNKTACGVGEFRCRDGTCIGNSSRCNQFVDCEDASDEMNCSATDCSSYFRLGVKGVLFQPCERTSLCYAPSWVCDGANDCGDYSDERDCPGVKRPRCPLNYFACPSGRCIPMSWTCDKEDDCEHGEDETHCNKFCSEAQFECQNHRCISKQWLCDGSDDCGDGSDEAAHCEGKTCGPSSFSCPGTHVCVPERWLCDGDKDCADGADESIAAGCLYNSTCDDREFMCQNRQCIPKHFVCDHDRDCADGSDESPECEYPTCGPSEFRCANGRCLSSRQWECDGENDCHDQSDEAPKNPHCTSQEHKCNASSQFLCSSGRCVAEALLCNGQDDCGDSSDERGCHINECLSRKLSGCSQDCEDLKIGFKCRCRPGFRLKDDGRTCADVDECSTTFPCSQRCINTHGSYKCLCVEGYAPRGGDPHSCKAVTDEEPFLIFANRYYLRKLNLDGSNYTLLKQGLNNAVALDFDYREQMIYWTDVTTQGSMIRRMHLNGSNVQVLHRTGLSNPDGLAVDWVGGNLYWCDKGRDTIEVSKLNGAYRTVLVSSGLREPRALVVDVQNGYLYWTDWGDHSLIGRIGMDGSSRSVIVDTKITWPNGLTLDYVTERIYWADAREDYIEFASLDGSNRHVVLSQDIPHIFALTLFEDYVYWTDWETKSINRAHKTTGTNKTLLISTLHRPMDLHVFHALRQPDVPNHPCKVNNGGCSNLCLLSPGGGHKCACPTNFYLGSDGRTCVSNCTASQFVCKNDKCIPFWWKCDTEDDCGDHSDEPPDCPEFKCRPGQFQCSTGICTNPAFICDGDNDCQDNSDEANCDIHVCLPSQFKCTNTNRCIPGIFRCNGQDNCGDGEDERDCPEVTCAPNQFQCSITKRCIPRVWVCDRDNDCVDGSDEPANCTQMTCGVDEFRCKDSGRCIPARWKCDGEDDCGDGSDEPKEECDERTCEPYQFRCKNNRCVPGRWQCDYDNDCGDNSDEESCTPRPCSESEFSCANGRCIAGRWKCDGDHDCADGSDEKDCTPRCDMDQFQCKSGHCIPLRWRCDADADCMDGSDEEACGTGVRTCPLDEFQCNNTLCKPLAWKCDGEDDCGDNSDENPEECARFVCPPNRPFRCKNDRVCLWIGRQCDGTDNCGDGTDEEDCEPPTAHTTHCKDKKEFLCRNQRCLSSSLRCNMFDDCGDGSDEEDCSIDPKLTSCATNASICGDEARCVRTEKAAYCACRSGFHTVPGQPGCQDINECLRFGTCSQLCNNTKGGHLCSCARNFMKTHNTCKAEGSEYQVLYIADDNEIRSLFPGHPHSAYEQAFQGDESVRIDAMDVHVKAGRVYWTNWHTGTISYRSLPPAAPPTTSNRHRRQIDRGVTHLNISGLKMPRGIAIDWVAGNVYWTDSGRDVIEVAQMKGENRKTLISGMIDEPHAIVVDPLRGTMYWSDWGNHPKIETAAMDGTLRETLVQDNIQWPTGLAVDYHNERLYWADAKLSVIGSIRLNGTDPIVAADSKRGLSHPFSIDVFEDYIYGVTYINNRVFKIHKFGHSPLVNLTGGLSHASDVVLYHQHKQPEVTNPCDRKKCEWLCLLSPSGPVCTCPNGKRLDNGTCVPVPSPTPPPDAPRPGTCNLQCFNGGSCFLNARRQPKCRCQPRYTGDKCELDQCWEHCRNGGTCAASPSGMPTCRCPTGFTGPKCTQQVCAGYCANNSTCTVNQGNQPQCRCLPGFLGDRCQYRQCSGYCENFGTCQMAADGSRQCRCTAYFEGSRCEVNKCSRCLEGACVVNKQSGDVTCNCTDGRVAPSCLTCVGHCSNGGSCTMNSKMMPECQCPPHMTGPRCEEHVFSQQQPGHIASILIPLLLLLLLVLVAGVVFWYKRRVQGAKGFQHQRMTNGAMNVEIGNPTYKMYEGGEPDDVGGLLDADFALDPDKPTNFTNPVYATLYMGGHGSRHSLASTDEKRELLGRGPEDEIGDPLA

| Molecule | Binding to LRP [1] | Co-localization during endocytosis/transcytosis [2] | Resistance to heat denaturation [3] | Expression of endogenous p97 [4] |
| --- | --- | --- | --- | --- |
| B1 | Yes |  |  |  |
| B2 |  | co-localize with clathrin | resistant to heat denaturation | appears to induce its own expression |
